We go through one molecule from PMC3516566, “Identification of an Acinetobacter baumannii Zinc Acquisition System that Facilitates Resistance to Calprotectin-mediated Zinc Sequestration”.

In this series the target is T1, Zur (Acinetobacter baumannii ATCC 17978, UniProt V5VHH0 1-161).
T1 sequence: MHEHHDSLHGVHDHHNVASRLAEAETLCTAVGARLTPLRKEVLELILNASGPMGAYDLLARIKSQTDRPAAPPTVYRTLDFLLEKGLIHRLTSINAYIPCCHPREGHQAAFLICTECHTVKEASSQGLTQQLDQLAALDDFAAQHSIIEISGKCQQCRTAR
Kind of series: EMSA; 100 uM ZnCl2; Zur 0-2500 nM, DNA 250 nM; 20 mM Tris-HCl pH 8.0, 50 mM KCl, 1 mM DTT, 5% glycerol, 100 uM ZnCl2, 20 min at room temperature; 4% polyacrylamide gel. The conditions noted are these: protein: recombinant; tags: N-terminal 6xHis (pET15b), removed by thrombin; chain copies: 2; label: none (SYBR green stain); blunt.

B1: znuA intragenic negative control (dsDNA)
DNA 1: GTTACAAAAATACCTAAGATTAATCGAAT
DNA 2: ATTCGATTAATCTTAGGTATTTTTGTAAC
Turning to B1, the binding result is “no binding”.
